The target of test [1] is Recombinant gI protein (~46 kDa) from HSV-2 (BMP1052b or BMP1292) (HSV-2). The experiment in a line: indirect ELISA on coated HSV-2 gI, one mouse.
The target in test [2] is Recombinant gE/gI heterodimer protein (BMP1299) from HSV-1 (HSV-1) (UniProt P06487). The experiment in a line: indirect ELISA on coated HSV-1 gE/gI.
Test [3] concerns the target Recombinant gE protein (~51 kDa) from HSV-2 (BMP1049 or BMP1291) (HSV-2). The experiment in a line: indirect ELISA on coated HSV-2 gE.
Test [4] addresses Recombinant gI protein (~46 kDa) from HSV-2 (BMP1052b or BMP1292) (HSV-2). The experiment in a line: indirect ELISA on coated HSV-2 gI.

Chain of UniProt P06487 (P06487 whole entry, one chain of several): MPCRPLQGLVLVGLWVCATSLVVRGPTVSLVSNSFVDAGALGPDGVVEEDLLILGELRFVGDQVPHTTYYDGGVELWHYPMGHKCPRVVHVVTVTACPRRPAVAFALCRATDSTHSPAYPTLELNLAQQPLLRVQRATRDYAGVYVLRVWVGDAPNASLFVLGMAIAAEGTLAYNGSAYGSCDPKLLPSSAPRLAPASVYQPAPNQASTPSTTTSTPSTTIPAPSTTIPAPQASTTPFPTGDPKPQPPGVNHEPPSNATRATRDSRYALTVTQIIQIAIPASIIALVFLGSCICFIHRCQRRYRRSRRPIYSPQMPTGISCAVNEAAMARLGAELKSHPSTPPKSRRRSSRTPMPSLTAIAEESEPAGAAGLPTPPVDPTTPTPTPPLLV

In the case of “serum of CB6F1 mice injected with NaCl 150 mM (Example 1, group 6, negative control) (antibody)”, the IgG titer in test [1] is 135 EU/mL. As for “serum of CB6F1 mice injected with NaCl 150 mM (Example 2, group 7, negative control) (antibody)”, the IgG titer in test [2] stood at 11 EU/mL. For the substance “serum of CB6F1 mice injected with NaCl 150 mM (Example 3, group 7, negative control) (antibody)”, the IgG titer in test [3] and in test [4] was 17 EU/mL in each case.

The values above are taken from patent publication US20240091345A1.
